± gives the uncertainty stated by the source.

In the supplement of paper PMC12042874 one finds amyloid nucleation score data, which are given here for 139 substances.

The nature of the data set: amyloid nucleation score (Sup35N fusion, yeast selection) (log enrichment); library NNK2; higher = more nucleation; inactive = no reads after selection. The gist of the method:
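Psi-negative yeast expressed Sup35N fused to peptides of 20 random codons. They were induced 24 hours with 100 μM copper sulfate, grown 7 days at 30°C without adenine and uracil, and their plasmid inserts from input and output were Illumina-sequenced. The nucleation score is the DiMSum log enrichment of output over input reads, centred on the mode score of non-aggregating sequences. Sequences with under 100 input reads were excluded.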
For HFTSRLKIRSTIVAVVNVSS, the amyloid nucleation score came out at 3.16 ± 0.078.
Next, HFTTLGILLRCRGLSVLPKV: -0.329 ± 0.39; HFVRVSFGCCLVTLSMRVDR: 0.669 ± 0.26; HGAVGCAS: -0.002 ± 1.
The figure for HGRKNFSVGVVVVLWLRLFV is 5.63 ± 0.081.
The entry for HHSWRYRLYVSIDSSFCLGA is “inactive”; for HIEFDRWAPHLVDLPTGPMK it is “inactive”; for HIGHSWIGSALDTLAYEGYY it is -0.49 ± 0.76.
HIKLYSDYTCKLMPSLTWQR gave an amyloid nucleation score of 4.8 ± 0.08.
The figure for HIPRCINLVVRCTVKLVDGS is 2.35 ± 0.14; for HIVAGCIVQLANILWDRAEG it is 0.57 ± 0.38.
The figure for HIVEIGALYRAIYLKVKWRQ is 2.62 ± 0.21; for HKCRWSGPAVGSQGKDVIIL it is 1.12 ± 0.44; for HKDSKTGSIYHQWMDQREIE it is -1.1 ± 0.48.
As to HKHSISKCAKEALAALLLFV, the amyloid nucleation score is -0.319 ± 0.76.
The substance HKKAFVCPRCMVPCRRLWHG showed an amyloid nucleation score of 0.232 ± 0.25.
The figure for HLENGINIWDKLY is -0.363 ± 1.1.
Turning to HLGRYAVKMCYWKGLFFYNN, the amyloid nucleation score is 0.29 ± 0.74.
Regarding HLMLRKGLVKCWVQTVVGSG, the amyloid nucleation score worked out at 1.48 ± 0.33.
The figure for HLTSS is 0.772 ± 0.44.
Next, HLVGEKSSKRDSGGRGPRRY: -0.32 ± 0.61; HLYLPMYGIMFS: 1.27 ± 0.15.
Next, HMCTFSIICKKVLMSFMGIL: 1.93 ± 0.14; HNIIWFSLTWLRYMSVVVIC: “inactive”.
In turn, HNYSD showed an amyloid nucleation score of 0.187 ± 0.56.
Next, HPFSSRSS: -0.018 ± 1.1.
The entry for HPSFLRIWDYIRSKFNSVHR is “inactive”; for HPWSFLKVGVQFVGFWDSPY it is 0.366 ± 0.19; for HQVSGSDWPRSDYLRCLTIA it is 1.82 ± 0.19.
The figure for HRCSKPSWKVCIEWCRSRCV is 0.614 ± 0.45; for HREWG it is 0.668 ± 0.46; for HRFSMQALYRNIQEWSCEAW it is 2.07 ± 0.12.
With HRGNTCTGSRCRLADRRHPS, the amyloid nucleation score was 1.79 ± 0.18.
As for HRTMHRTHSICGGVDQRELL, the amyloid nucleation score is -0.538 ± 0.48.
The figure for HRVCLNTIGY is -1.02 ± 0.32; for HRVRIINCKKIWGNALWVRL it is 1.15 ± 0.14.
In turn, HRVWTVIMWGS had an amyloid nucleation score of 0.699 ± 0.44.
The figure for HRYLPSG is 0.224 ± 0.8.
Substance HSAYSWFLKSSNRRSWANSS showed an amyloid nucleation score of -0.666 ± 0.79.
Next, HSCRTYI: “inactive”.
Next, HSCSYRLLSMYTRLRTLVSG: -0.828 ± 0.64; HSFEFWIDTRWLVFINPYSR: -0.846 ± 0.44.
The figure for HSFLSGIKWLSSDLGDSVGY is -1.29 ± 0.62; for HSFMSRVARVSWMEMVVTLA it is 1.26 ± 0.41; for HSGCCRYLLNNWLYSYMQFY it is 4.08 ± 0.05.
For the substance HSSISVCVYSRLPCH, the amyloid nucleation score was -0.447 ± 0.36.
The figure for HSVLMAGSPTILRHRYRFKG is -0.723 ± 0.44.
The figure for HTGLSVGKFKVRHGNVHRVF is -0.181 ± 0.34.
The figure for HTLGIWLKREPWGMMYGLRG is 0.165 ± 1; for HTTASATPYFAGQV it is 0.042 ± 0.38.
In turn, HTWHLDRSLNLSMSLEPMLL displayed an amyloid nucleation score of 0.233 ± 0.4.
The figure for HVEWMTCWLVSNNTDPRWDR is 0.911 ± 0.27.
Substance HVHCEIGFVRLSTRVGRWFG yielded an amyloid nucleation score of 6.64 ± 0.079.
Next, HVHKL: -0.403 ± 0.39; HVHVNLYRTSGDIEHMSVQL: 8.391 ± 0.046.
The figure for HVRYYGTHSTVNDNYIRNVR is 0.425 ± 0.31.
The figure for HVTRQLCPLMSFILGR is 0.565 ± 0.49.
As to HVYAVRSLLYGGWGRH, the amyloid nucleation score was found to be 4.46 ± 0.051.
The figure for HVYVGL is -0.578 ± 1.1; for HWCLLNSPNYIEMSLNDFLY it is 3.62 ± 0.053.
Next, HWGLNTWPYSDFGVTLLRGH: -0.477 ± 0.76; HWRGFYS: -0.388 ± 1.1.
HYRGSENGVEPSFLYGVSLL: the amyloid nucleation score was found to be 0.079 ± 0.49.
The entry for HYRWMSHADIMVFHNLCRYN is “inactive”.
The figure for HYRYEVDYLSELCIPDGMPM is -0.197 ± 0.24; for HYSFRSIAGLQAVCGDNCMD it is 0.427 ± 0.52.
Next, HYYPLVAIR: 0.389 ± 0.49; HYYSIDEASRYKMDLNLSLL: 2.91 ± 0.099; IACLNKTFLFSCVNIYGLMT: 5.736 ± 0.037.
On to IALANVGLED, for which the amyloid nucleation score was -0.023 ± 0.33.
The figure for IANVWLLQFRKAFEGGLDAG is 7.08 ± 0.079; for IASISERLYCFAGPTIRCNR it is 0.338 ± 0.43; for ICAGSGFRKGRINPELRVHW it is -1.24 ± 0.75.
On to ICCWEMCLGSFFR, for which the amyloid nucleation score was 0.287 ± 0.65.
Next, ICEVRIFKLNMVVCSLYYMV: -1.12 ± 0.76; ICGPLTRRVIDCGAYTKY: -0.19 ± 0.26; ICVYSTRTDKMSCRPF: 0.856 ± 0.6.
Next, IDDDIFVMCCIEKHVLVCEF: 3.26 ± 0.047; IDFQVVWSIFLENSKKHSTR: 0.213 ± 0.8; IDHINF: -0.524 ± 0.64.
Regarding IDNLFWPRLSGPDFVI, the amyloid nucleation score is -1.7 ± 1.1.
The figure for IDRVVSTRSSGFVCGEAFCG is -0.365 ± 0.63; for IDYLDTCFAVCFVGYTVCPT it is 0.111 ± 0.5.
Next, IDYQSGMPWVSMRMILKQ: 0.158 ± 0.46.
In the case of IEDSEREMACINPGFSFVVV, the amyloid nucleation score is -1.83 ± 1.1.
Next, IEGFRNDFLYVKISVGGAVV: “inactive”; IEHIRFTSSSAVVRRCGNC: 6.11 ± 0.066; IEYWRSGVMELGHVVSYRDI: 0.102 ± 0.77.
The figure for IFCNTLCQIGFRRNVKASGN is -0.104 ± 0.5; for IFFLMNPR it is 2.16 ± 0.068; for IFGFGMFKWKTFLTLSVFV it is -0.223 ± 0.76.
Next, IFGSWSSIMCLTKFKCSLGG: 2.8 ± 0.081; IFHRLKDLT: -1.24 ± 0.48.
Turning to IFHYAFC, the amyloid nucleation score was determined as 10.09 ± 0.061.
IFLEMKDHIIRATFNRLRFC: the amyloid nucleation score result is “inactive”.
The substance IFLIK yielded an amyloid nucleation score of -0.249 ± 1.1.
The figure for IFMNPICFWSNRNFLVWSNN is 4.5 ± 0.059.
Next, IFMRNRV: -0.524 ± 0.64; IFNCLFDNGKDVYFGILIDF: 2.85 ± 0.081.
In turn, IFPLPDLGAYSC gave an amyloid nucleation score of 0.47 ± 0.65.
Next, IFSIKPIYLDLNQRVNSIAE: “inactive”; IFSKVRLFFRRGMNFVMGEV: -1.64 ± 0.77; IFSQGHEYKRDELKNV: “inactive”.
In turn, IFSRIDTQCGMMSISQQ displayed an amyloid nucleation score of -0.364 ± 0.24.
Next, IFSTHVEFRWQLILGL: -0.426 ± 0.25.
Next, IFVFSWRIRMWLLKSLTCG: -0.904 ± 0.78.
Next, IFYIVGYFAHLMMWNTRRDG: “inactive”; IFYNIVE: -1.31 ± 0.78; IFYRYFSVFNCPAICRQYRK: 6.382 ± 0.054.
The substance IFYWLIHHRLMYDFFCRVLT came in with an amyloid nucleation score of -0.995 ± 0.76.
Next, IFYYIDCCHITARYFQREGM: 7.71 ± 0.081.
Next, IGAQPRDGYN: -0.223 ± 0.49; IGGGTLYWGVDWVMY: 2.96 ± 0.12; IGHLPMMVLT: 1.42 ± 0.36.
The figure for IGLKVSSFNDKVLSGA is -0.285 ± 0.63; for IGLTALDFMSAFGVHLYGCG it is 0.215 ± 0.76; for IGLVVFSAL it is 2.56 ± 0.11.
In the case of IGRMGIQKWS, the amyloid nucleation score was found to be 0.698 ± 0.47.
The figure for IGRRLVDFWDVGPFCSHVII is -1.48 ± 1.1; for IGTYWYVKLWRYSYVYPYLD it is 0.665 ± 0.57.
The substance IGVIKGFYWHK returned an amyloid nucleation score of -0.343 ± 1.1.
Next, IGVWMGCYTSLHCSIKCLEI: 6.36 ± 0.086; IGWTFIHVPCSAQRFVAIVS: 0.827 ± 0.51; IHESSSF: -0.47 ± 1.1.
Next, IHFWIMIDHG: -0.771 ± 0.35.
The figure for IHGFNLSIRKMQKDGSDGQH is 0.635 ± 0.65; for IHRILCHGVRASMLGGSVAL it is 0.067 ± 0.79.
The substance IHVICCAGRVARCFVSEIMG yielded an amyloid nucleation score of 0.674 ± 0.48.
Next, IIADCTVARARHCLE: 0.276 ± 1; IIGFLFMDFLLSCRFQFCT: -1.32 ± 0.45; IIKLGESNPKSPFGTLYYGF: -0.213 ± 1.1.
Next, IILAKLSLLTICCSIDWISR: 3.07 ± 0.11; IILRCNKDFEALACIVVSRR: “inactive”; IIRITESASRCNTDQLFLLW: “inactive”.
Substance IIRYTSILWKINGSGVNFWF displayed an amyloid nucleation score of -0.67 ± 0.55.
The entry for IISFLLFGEGGFFLVLY is “inactive”; for IISSYSATEARTMFIKLHCL it is -0.606 ± 0.54.
The substance IIVCVSGIYLSMSQ yielded an amyloid nucleation score of 6.007 ± 0.035.
The figure for IIVIVWQGWSNGVGLHSCGA is 3.15 ± 0.063.
